# Where two headings read alike, the source gives them in different places. Marks after values point to notes of the source that are not given here.
# Conditions: pig, in vivo
# Description: Serum concentrations of total ADC, total antibody and Free Payload (unconjugated SN38) were determined in three separate assays conducted by PPD.
# A 20.0-μL sample aliquot was diluted 10-fold. A portion of the diluted sample was taken and processed using an immunoaffinity approach. SMART Digest IA magnetic beads coated with anti-human Fc antibody were used to enrich Trodelvy from matrix. The bound proteins were subjected to “on-bead” proteolysis with trypsin. […] After trypsin digestion, the proteins were further subjected to acidic conditions to release SN-38 from the antibody, which was used for Total ADC quantitation. The following sequences in Table 49 were selected for monitoring in the assay:
# VVSV was used for the quantitation of Total Antibody concentrations, DSTY was used for the quantitation of Intact Antibody (trouble shooting purposes only), and SN-38 was used for quantitating Total ADC concentrations.
# A nominal unconjugated SN-38, concentration range of […] was chosen to quantitate samples. This assay requires a 50.0 μL porcine serum aliquot. Samples were kept frozen at −80° C. prior to analysis.
# A matrix aliquot was fortified with internal standard. Analytes were isolated through protein precipitation. The eluate was evaporated under a nitrogen stream, and the remaining residue reconstituted. Final extracts were analyzed via HPLC MS/MS detection using positive ion electrospray.
# Therefore, nominal time points were used for PK analyses. To estimate the serum concentration at time zero for intravenous (IV) data, a second-order polynomial regression was applied to the early serum time points (0.25, 1, and 2 hours). The intercept of the fitted polynomial curve was used as the extrapolated concentration at time zero. Skin concentration data (μg/mL) was normalized to total protein (mg/mL) per sample, resulting in values represented as μg/mg protein.
# Pharmacokinetic parameters were calculated using noncompartmental methods performed in Microsoft Excel. The area under the concentration-time curve (AUC) was determined using the linear trapezoidal rule. For serum data, AUC0-7 was calculated using all available time points. For skin data, AUC1-7 was computed based on the three available time point measurements. The maximum observed concentration (Cmax) was identified directly from the dataset, and the time at which it occurred (Tmax) was recorded. All calculations were performed using Microsoft Excel.
# Quantitation of total antibody, total ADC, and free payload (SN-38) from Trodelvy in porcine serum and tissue samples was performed via HPLC with MS/MS detection.
substance,measurement,setting,value
Sacituzumab govitecan [Trodelvy],"Relative difference in serum AUC0-7, Free Payload",,59%
same,"Relative difference in serum AUC0-7, TAB",,76%
same,"Relative difference in serum AUC0-7, TADC",,34%
same,"Relative difference in serum Cmax, Free Payload",,38%
same,"Relative difference in serum Cmax, TAB",,44%
same,"Relative difference in serum Cmax, TADC",,13%
same,"TADC/Free Payload, Tmax",50 mg,100%
same,"TADC/TAB, Tmax",50 mg,33%
same,AUC0-7 of free payload,iv,0.1252 µg·days/mL
same,AUC0-7 of total ADC (TADC),iv,41.44 µg·days/mL
same,AUC0-7 of total antibody (TAB),iv,193.05 µg·days/mL
same,Cmax of free payload,iv,95.3 ng/mL
same,Cmax of total ADC (TADC),iv,60550 ng/mL
same,Cmax of total antibody (TAB),iv,57600 ng/mL
same,Tmax of free payload,iv,0 h
same,Tmax of total ADC (TADC),iv,0 h
same,Tmax of total antibody (TAB),iv,0 h
same,Total ADC Result,"iv, 50 mg, 6 h",43.9 µg/mL
same,Total ADC Result,"iv, 50 mg, 24 h",10 µg/mL
same,Total ADC Result,"iv, 50 mg, 48 h",2.27 µg/mL
same,Total ADC Result,"iv, 50 mg, 72 h",0.751 µg/mL
same,Total ADC Result,"iv, 50 mg, 96 h",<0.500 µg/mL
same,Total ADC Result,"iv, 50 mg, 168 h",0.1 µg/mL
same,serum concentration of total ADC (TADC),"iv, 6 h",43.90 µg/mL
same,serum concentration of total ADC (TADC),"iv, 24 h",10.00 µg/mL
same,serum concentration of total ADC (TADC),"iv, 48 h",2.27 µg/mL
same,serum concentration of total ADC (TADC),"iv, 72 h",0.75 µg/mL
same,serum concentration of total ADC (TADC),"iv, 96 h",<0.50^b μg/mL
same,serum concentration of total ADC (TADC),"iv, 168 h",0.10 µg/mL
same,Tmax of free payload,sc,24 h
same,serum concentration of total ADC (TADC),"sc, 0 h",<0.10^b μg/mL
same,serum concentration of total ADC (TADC),"sc, 6 h",4.96 µg/mL
same,serum concentration of total ADC (TADC),"sc, 24 h",7.87 µg/mL
same,serum concentration of total ADC (TADC),"sc, 48 h",2.77 µg/mL
same,serum concentration of total ADC (TADC),"sc, 72 h",1.00 µg/mL
same,serum concentration of total ADC (TADC),"sc, 168 h",0.13 µg/mL

# Source: patent publication US20260069707A1, “COMBINATION THERAPY WITH ANTIBODY-DRUG CONJUGATES AND HYALURONIDASES” (HALOZYME, INC., priority 2024, published 2026)
